Laboratory results: US12643935B2, “PD-L1 binding peptides” (UNIVERSITY OF SOUTHERN CALIFORNIA, priority 2020, dated 2026)
Values belong to the substance of their own block, whether it stands above or below them. Where no end group is shown, it is not given here. [ ]: non-standard residue; d: D form. Pra = C#CC[C@H](N)C(=O)O

Key:
Type in all cases: cell-based
[1] = target: T1, hPD-L1 expressed on the surface of Chinese hamster ovary (CHO) cells (CHO-hPD-L1) (Homo sapiens, UniProt Q9NZQ7); experiment: Antibody titration by flow cytometry on CHO-hPD-L1 cells; conditions: 4° C., read-out: KD of Fluorescein-labeled antibody on CHO-hPD-L1
T1 construct: expressed in transfected cells; host or cells: CHO
T1 sequence (Q9NZQ7 19-290): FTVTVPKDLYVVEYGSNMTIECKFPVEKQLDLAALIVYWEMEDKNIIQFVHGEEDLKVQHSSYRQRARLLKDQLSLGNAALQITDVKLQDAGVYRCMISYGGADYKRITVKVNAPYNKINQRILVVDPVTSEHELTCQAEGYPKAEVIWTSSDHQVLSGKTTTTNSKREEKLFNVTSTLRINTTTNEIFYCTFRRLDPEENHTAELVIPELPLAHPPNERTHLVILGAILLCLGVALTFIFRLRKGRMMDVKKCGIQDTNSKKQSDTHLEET
From the text: (§1) To do this, we measured SPAM peptide inhibition of anti-PD-L1 antibody binding to hPD-L1 expressed on the surface of Chinese hamster ovary (CHO) cells (CHO-hPD-L1). […] Cells were washed again and analyzed by flow cytometry (FIG. 5B-C).

[2] = target: T2, CHO-mPD-L1 cells which express mPD-L1 (Mus musculus, UniProt Q9EP73); experiment: Antibody competition by flow cytometry on CHO-mPD-L1 cells; conditions: pre-treatment 0-20 μM, 50 nM antibody
T2 construct: expressed in transfected cells; host or cells: CHO
T2 sequence (Q9EP73 19-290): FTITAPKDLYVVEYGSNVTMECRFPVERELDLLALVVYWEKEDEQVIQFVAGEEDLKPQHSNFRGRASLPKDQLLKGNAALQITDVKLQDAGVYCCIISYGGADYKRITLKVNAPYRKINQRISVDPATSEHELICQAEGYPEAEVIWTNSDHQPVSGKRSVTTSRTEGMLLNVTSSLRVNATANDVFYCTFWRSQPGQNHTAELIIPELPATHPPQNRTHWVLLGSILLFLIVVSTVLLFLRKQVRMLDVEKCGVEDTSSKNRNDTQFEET
Method: We performed similar experiments with CHO-mPD-L1 cells which express mPD-L1 to determine if this effect was specific to hPD-L1 expression. We have developed two cross-reactive anti-hPD-L1/mPD-L1 antibodies, 16373 and 16377. These antibodies were labeled with Fluorescein, titrated against CHO-hPD-L1 and CHO-mPD-L1 cells (FIG. 12B-C) and subjected to competition experiments as described above.
The cells were washed once with cold serum free DMEM and incubated with 1 nM FAM-Atezolizumab, 10 nM FAM-Avelumab, 50 nM FAM-16373, or 50 nM FAM-16377 in serum free DMEM at 4° C. for 30 min. Cells were then washed three times with cold serum free DMEM. Cells were subsequently processed by flow cytometry with a BD FACSCalibur system using the FL1 channel. FlowJo v10.1 was used to gate to the major population and median FL1 fluorescence reported.

[3] = target: T1, hPD-L1 expressed on the surface of Chinese hamster ovary (CHO) cells (CHO-hPD-L1); experiment: Antibody competition by flow cytometry on CHO-hPD-L1 cells; conditions: pre-incubation 30 min 4° C., 0-20 μM; SPAM effect at 20 μM; 1 nM Atezolizumab, 10 nM Avelumab
From the text: as §1
Cells were then washed three times with cold serum free DMEM. Cells were subsequently processed by flow cytometry with a BD FACSCalibur system using the FL1 channel. FlowJo v10.1 was used to gate to the major population and median FL1 fluorescence reported.

Kd [1]: 0.2 nM
Substance: Atezolizumab: hPD-L1 specific monoclonal antibody

blocking of Fluorescein-16373 and Fluorescein-16377 in CHO-mPD-L1 cells [2]: blocking was absent
Substance: Cyclo[(AcTyr)(NMeAla)NPHL(Hyp)WS(Trp(Me))(NMeNle) (NMeNle)(Orn)C]-Gly-NH2 (XXNPHLXWSXXXXCG; N-methyl; non-natural residues; cyclised or stapled) [WL-12]

Substance: YKLNLIHPHIFLMDWIFASG-Pra (YKLNLIHPHIFLMDWIFASG[Pra]-NH2; N-terminus assumed; SMILES C#CC[C@H](NC(=O)CNC(=O)[C@H](CO)NC(=O)[C@H](C)NC(=O)[C@H](Cc1ccccc1)NC(=O)[C@@H](NC(=O)[C@H](Cc1c[nH]c2ccccc12)NC(=O)[C@H](CC(=O)O)NC(=O)[C@H](CCSC)NC(=O)[C@H](CC(C)C)NC(=O)[C@H](Cc1ccccc1)NC(=O)[C@@H](NC(=O)[C@H](Cc1c[nH]cn1)NC(=O)[C@@H]1CCCN1C(=O)[C@H](Cc1c[nH]cn1)NC(=O)[C@@H](NC(=O)[C@H](CC(C)C)NC(=O)[C@H](CC(N)=O)NC(=O)[C@H](CC(C)C)NC(=O)[C@H](CCCCN)NC(=O)[C@@H](N)Cc1ccc(O)cc1)[C@@H](C)CC)[C@@H](C)CC)[C@@H](C)CC)C(N)=O) [SPAM-scramble, control scrambled peptide, reference compound]
Fluorescein-Atezolizumab and Fluorescein-Avelumab binding to CHO-hPD-L1 after pre-incubation [3]: not observed
